According to patent US20180346932A1:

Molecular target: dCas9-GCN4 fusion protein of System 3 (dCas9 with 5 copies of GCN4 peptides, linker of 22 amino acids) (S. pyogenes) (UniProt Q99ZW2)
Assay: cell-based or functional assay

GCN4 peptide antibody (scFv)-superfolder green fluorescent protein (sfGFP)-TET1CD fusion protein, sequence (Q8NFU7 1418-2136): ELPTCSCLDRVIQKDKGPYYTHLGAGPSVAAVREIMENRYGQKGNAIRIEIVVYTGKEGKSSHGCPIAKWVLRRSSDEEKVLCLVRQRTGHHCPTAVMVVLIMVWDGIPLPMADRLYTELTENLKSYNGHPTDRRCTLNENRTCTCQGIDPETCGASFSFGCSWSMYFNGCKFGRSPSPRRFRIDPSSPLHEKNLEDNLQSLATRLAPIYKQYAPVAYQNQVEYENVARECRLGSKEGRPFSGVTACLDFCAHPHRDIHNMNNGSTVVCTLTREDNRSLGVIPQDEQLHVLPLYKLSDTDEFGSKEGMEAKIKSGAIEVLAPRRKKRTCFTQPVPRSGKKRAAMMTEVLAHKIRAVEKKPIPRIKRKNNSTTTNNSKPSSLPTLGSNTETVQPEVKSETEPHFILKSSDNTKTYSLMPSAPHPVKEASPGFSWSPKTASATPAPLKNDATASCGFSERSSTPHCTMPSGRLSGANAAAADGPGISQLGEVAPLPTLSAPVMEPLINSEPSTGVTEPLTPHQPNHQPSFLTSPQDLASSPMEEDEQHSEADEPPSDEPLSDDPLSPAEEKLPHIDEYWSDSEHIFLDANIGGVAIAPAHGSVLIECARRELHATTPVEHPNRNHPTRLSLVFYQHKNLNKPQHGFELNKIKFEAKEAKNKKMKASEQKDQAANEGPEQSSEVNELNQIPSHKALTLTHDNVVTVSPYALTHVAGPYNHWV

demethylation of the Gfap STAT3 site in ESCs (COBRA, standardized demethylation percentage): 43%
Substance: GCN4 peptide antibody (scFv)-superfolder green fluorescent protein (sfGFP)-TET1CD fusion protein (from UniProt Q8NFU7 1418-2136)
